The values below come from patent publication US20240400703A1 (Genmab, published 2024).

Values joined by “and” are separate entries in the source; they are usually repeats but may differ in a detail not shown here. Equal values may be shown once.

Assay [1] addresses T1, human OX40 expressed on cells (human, UniProt P43489 29-277).
T1 construct: also called CD134; TNFRSF4
T1 sequence: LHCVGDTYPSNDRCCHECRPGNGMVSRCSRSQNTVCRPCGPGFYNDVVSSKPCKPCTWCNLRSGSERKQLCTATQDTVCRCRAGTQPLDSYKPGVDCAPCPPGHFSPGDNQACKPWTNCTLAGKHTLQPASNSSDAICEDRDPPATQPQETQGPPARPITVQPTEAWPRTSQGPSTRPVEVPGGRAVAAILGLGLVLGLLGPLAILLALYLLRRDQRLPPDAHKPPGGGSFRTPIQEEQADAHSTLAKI
Put plainly: flow cytometry, activated human CD4+ T cells, with 2 µg/mL sOX40L, n=3. On the procedure: (§1) Stimulated PBMCs were pelleted, resuspended in FACS buffer 2 (DPBS with 2% heat-inactivated FBS [Sigma-Aldrich, cat. no. F7524] and 2 mM EDTA [Sigma-Aldrich, cat. no. 03690]), and seeded (100,000 cells/well) in round-bottom 96-well plates (VWR International GmbH, cat. no. 734-197). […] Next, cells were washed twice in FACS buffer, and incubated with 30 μL of the antibody panel described in Table 11 diluted in FACS buffer 2 containing 1:1,500 Fixable Viability Stain eFluor 780 at 4° C. for 20 min, protected from light. The cells were subsequently washed twice with 120-150 μL FACS buffer 2 and measured on a BD FACSCelesta flow cytometer using a BD High Throughput sampler and subsequent analysis was done using FlowJo software.

Assay [2] addresses T1, human OX40 expressed on cells. Put plainly: flow cytometry, activated human CD4+ T cells, donor 2. On the procedure: (§2) Healthy human donor PBMCs were purified essentially as described in Example 7. The cell concentration was adjusted to 2×10⁶ cells per mL (final concentration) in assay medium and plated in 6-well plates (Greiner, cat. no. 657160). PBMCs were stimulated with 0.3 μg/mL anti-CD3 ([…] Technologies, cat. no. 60011) and 0.5 μg/mL anti-CD28 antibodies (BioLegend, cat. no. 302934) and cultured for two days at 37° C., 5% CO₂. Next, the PBMCs were harvested, counted and brought to a concentration of 2×10⁶ cells per mL in FACS buffer 1 (DPBS with 2% heat-inactivated FBS and 2 mM ethylenediaminetetraacetic acid [EDTA]). […] After 60 min at RT, the cells were prepared for flow cytometric analyses. To this end, the cells were washed twice with 150 μL FACS buffer 1 and 30 μL/well cell-surface antibody mix (Table 9) in FACS buffer 1 containing antibody against human Fcγ antibody (Table 9) and fixable viability dye eFluor780 (1:1,500) was added. The staining procedures were carried out at 4° C. for 15-20 min protected from light. Stained cells were washed twice with 120-150 μL FACS buffer 1 (5 min, 460×g, RT) and resuspended in 60-100 μL FACS buffer 1 for direct flow cytometric analyses. Flow cytometric data were acquired on a FACSymphony A3 and analyzed with FlowJo software.

Assay [3] shares this target. Put plainly: flow cytometry, activated human CD8+ T cells, mean of 3 donors. On the procedure: as §2
For assay [4] the target is unchanged. Put plainly: flow cytometry, loss of sOX40L (2 µg/mL) binding to activated human CD4+ T cells; competitor sOX40L; unit taken from the upper half of the table. Here is the method:
as §1

For assay [5] the target is unchanged. Put plainly: flow cytometry, activated human CD4+ T cells, mean of 3 donors; CD4+ T cells.
Assay [6] has the same target. Put plainly: flow cytometry, activated human CD8+ T cells, donor 3. On the procedure: as §2
The target is the same in assay [7]. Put plainly: flow cytometry, OX40-transfected HEK293F cells, gMFI (PE). On the procedure:
(§3) Transfected cells were seeded in 96-well plates (30,000 cells/well; ThermoFisher, cat. no. 163320) for sequential incubations, with washing steps in between using fluorescence-activated cell sorting (FACS) buffer 1 (phosphate buffered saline [PBS; Lonza, cat. no. BE17-517Q] supplemented with 0.1% bovine serum albumin [BSA; Roche, cat. no. 10735086001] and 0.02% sodium azide [NaN₃; Bio-World, cat. no. 41920044-3]) supplemented with 2 mM ethylenediaminetetraacetic acid (EDTA; Sigma-Aldrich, cat. no. 03690). […] Cells were then washed using EDTA-supplemented FACS buffer 1, resuspended in a 30 μL solution of viability marker ToPro-3 (Invitrogen, cat. no. T3605, diluted 1:10,000) in EDTA-supplemented FACS buffer 1, and subsequently analyzed on an iQue® 3 flow cytometer (Satorius). Data were analyzed using FlowJo software and were visualized using GraphPad Prism.

Assay [8] deals with T2, cynomolgus monkey OX40 expressed on HEK293F cells (cynomolgus monkey (Macaca fascicularis), UniProt P43489 29-277 (human entry)).
T2 construct: full-length entry
T2 chain: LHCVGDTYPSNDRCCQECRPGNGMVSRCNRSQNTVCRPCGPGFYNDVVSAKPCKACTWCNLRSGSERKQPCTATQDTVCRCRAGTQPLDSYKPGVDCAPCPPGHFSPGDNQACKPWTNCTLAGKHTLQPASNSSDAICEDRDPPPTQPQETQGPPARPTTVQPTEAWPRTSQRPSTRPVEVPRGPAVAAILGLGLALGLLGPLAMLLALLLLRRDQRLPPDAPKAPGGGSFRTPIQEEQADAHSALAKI
The assay is described as above. On the procedure:
as §3

Assay [9] addresses T1, human OX40 expressed on cells. Put plainly: flow cytometry, activated human CD8+ T cells, with 2 µg/mL sOX40L, n=3. On the procedure:
as §1

Assay [10] shares this target. Description: flow cytometry, loss of sOX40L (2 µg/mL) binding to activated human CD8+ T cells; competitor sOX40L; unit taken from the upper half of the table. Here is the method: as §1
Assay [11] shares this target. Put plainly: flow cytometry, activated human CD8+ T cells, donor 1. Here is the method: as §2

B1: IgG1-CD134-003-HC6LC2-P329R-E345R (antibody)
heavy: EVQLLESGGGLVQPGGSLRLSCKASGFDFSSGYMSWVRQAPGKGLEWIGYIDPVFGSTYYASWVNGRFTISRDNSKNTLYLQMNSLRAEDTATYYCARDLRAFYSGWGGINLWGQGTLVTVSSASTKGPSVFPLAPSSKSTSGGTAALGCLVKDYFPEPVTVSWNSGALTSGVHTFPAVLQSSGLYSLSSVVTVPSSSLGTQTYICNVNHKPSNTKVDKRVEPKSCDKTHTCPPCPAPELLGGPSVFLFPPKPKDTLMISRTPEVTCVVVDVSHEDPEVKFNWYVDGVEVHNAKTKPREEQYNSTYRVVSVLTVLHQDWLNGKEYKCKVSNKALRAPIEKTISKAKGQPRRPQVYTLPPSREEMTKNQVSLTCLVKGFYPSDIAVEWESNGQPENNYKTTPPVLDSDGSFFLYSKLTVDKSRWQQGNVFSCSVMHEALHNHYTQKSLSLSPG
light: AAVLTQSPSSLSASVGDRVTITCQSSQIVVNNNFLSWYQQKPGKAPKLLIYDASNLASGVPDRFSGSGSGTDFTFTISSLQPEDIATYYCLGGYDDDAENAFGGGTKVEIKRTVAAPSVFIFPPSDEQLKSGTASVVCLLNNFYPREAKVQWKVDNALQSGNSQESVTEQDSKDSTYSLSSTLTLSKADYEKHKVYACEVTHQGLSSPVTKSFNRGEC
notes: humanized; human IgG1 with P329R and E345R (Eu numbering), kappa; also called IgG1-CD134-003-HC6LC2-RR
B1: the EC50 in assay [1] was 0.054 µg/mL and 0.359 nM; in [2] it was 0.0167 µg/mL; in assay [3], 0.0236 µg/mL; in assay [5], 0.14 nM; in [6], 0.0217 µg/mL; in assay [9] it was 0.038 µg/mL and 0.254 nM. In assay [11], the concentration for a half-maximal effect (EC50) amounted to 0.0329 µg/mL. Moreover, the IC50 in assay [4] turned out to be 0.579 nM; in assay [10], 0.561 nM. The “EC50 (read off the curve)” value in assay [7] and in assay [8] was ~0.05 µg/mL throughout.
